Among the data in patent publication US20230122364A1 are EC50 values, retold here.

In general, EC50 refers to the concentration needed to bring the measured effect to its halfway point.

For experiment [1], the target named is SRBD subdomain of SARS-CoV-2 S protein (SARS-CoV-2) (UniProt P0DTC2). The experiment is described as follows: ELISA on coated SRBD. For orientation: In an ELISA, binding on a coated surface is turned into a signal by an enzyme label.
Experiment [2] addresses SARS-CoV S2Pecto antigen (SARS-CoV) (UniProt P59594). The experiment is described as follows: ELISA on coated SARS-CoV S2Pecto.

In the case of “rCR3022 (recombinant form of the cross-reactive SARS-CoV SRBD mAb CR3022) (antibody)”, the EC50 in experiment [1] amounted to 1.1 ng/mL; in experiment [2], 5.2 ng/mL.
